Substrate: Nc1ncnc2c1ncn2[C@@H]1O[C@H](COP(=O)(O)OS(=O)(=O)O)[C@@H](OP(=O)(O)O)[C@H]1O
Assay: cells, lysate or membranes
Format: biochemical, Mus musculus
Details: labelled compound, 20 mM Tris-HCl pH 7.5, 0.25 M sucrose, 5 mM MgCl2, 1 mM MnCl2, 10 mM 2-mercaptoethanol, 32°C, 5 min

B1: PAPST1 (Mus musculus) (protein)
chain: MDARWWAVVVLATLPSLGAGGESPEAPPQSWTQLWLFRFLLNVAGYASFMVPGYLLVQYLRRKNYLETGRGLCFPLVKACVFGNEPKAPDEVLLAPRTETAESTPSWQVLKLVFCASGLQVSYLTWGILQERVMTGSYGATATSPGEHFTDSQFLVLMNRVLALVVAGLYCVLRKQPRHGAPMYRYSFASLSNVLSSWCQYEALKFVSFPTQVLAKASKVIPVMMMGKLVSRRSYEHWEYLTAGLISIGVSMFLLSSGPEPRSSPATTLSGLVLLAGYIAFDSFTSNWQDALFAYKMSSVQMMFGVNLFSCLFTVGSLLEQGALLEGARFMGRHSEFALHALLLSICSAFGQLFIFYTIGQFGAAVFTIIMTLRQAIAILLSCLLYGHTVTVVGGLGVAVVFTALLLRVYARGRKQRGKKAVPTEPPVQKV
Km: 1.54 µM

B2: PAPST2 (Mus musculus) (protein)
chain: MDLKFNNSRKYVSISVPSKTQAMSPHIKSVEDVVVLGVNLSKFSKLTQFLICVAGVFVFYLIYGYLQELIFSVEGFKPYGWYLTLVQFAFYSVFGLIELQLTQDRRRRIPGKTYMLIAFLTVGTMGLSNTSLGYLNYPTQVIFKCCKLIPVMLGGVFIQGKRYNLADVSAAVCMSLGLIWFTLADSTIAPNFNLTGVMLISLALCADAVIGNVQEKAMKLHNASNSEMVLYSYSIGFVYILLGLSCTSGLGPAVAFCSKNPVGTYGYAFLFSLTGYFGISFVLALIKIFGALLAVTVTTGRKAMTVVLSFLFFAKPFTFQYIWSGLLVVLGIFLNVYSKNMDKIRLPSVYNMIKKAMDMKKSRTLAQTV
Km: 1.49 µM

— PMC2788424, “The 3′-Phosphoadenosine 5′-Phosphosulfate Transporters, PAPST1 and 2, Contribute to the Maintenance and Differentiation of Mouse Embryonic Stem Cells” (PLoS ONE, 2009)
